# Assay results published in PMC9222203, “A Robust Assay to Monitor Ataxin-3 Amyloid Fibril Assembly” (Cells, 2022).
# B1: Ataxin-3 Josephin domain (domain or fragment, human, UniProt P54252-2 1-180, looked up)
# chain: MESIFHEKQEGSLCAQHCLNNLLQGEYFSPVELSSIAHQLDEEERMRMAEGGVTSEDYRTFLQQPSGNMDDSGFFSIQVISNALKVWGLELILFNSPEYQRLRIDPINERSFICNYKEHWFTVRKLGKQWFNLNSLLTGPELISDTYLALFLAQLQQEGYSIFVVKGDLPDCEADQLLQM
# notes: Josephin domain of human ataxin-3 (UniProt P54252-2); A TEV site lies downstream of the His tag; no cleavage described; captured by its His tag in switchSENSE; also called Atx3 JD; JD; source: E. coli BL21(DE3)-SI, purified (Ni2+ IMAC, Sephacryl S-300 SEC); not shown: His6, N-terminal, kept
# Experiments:
# [1] = target: the molecule itself
# [2] = target: the molecule itself; experiment: switchSENSE; His-tagged protein (500 nM) captured on NTA3-functionalised DNA nanolevers; the same protein as analyte at 3.75-15 uM; PBS pH 7.5, 1 mM TCEP, 37 C; static measurement mode; global mono-exponential fits; self-association
protein,measurement,setting,value
B1,Kd,[1],4.6 µM
same,binding result,[2],binds
